Reference: PMC9352680, “A comprehensive thermodynamic model for RNA binding by the Saccharomyces cerevisiae Pumilio protein PUF4”

T1: PUF4 RNA-binding domain (Saccharomyces cerevisiae, UniProt P25339 537-888)
T1 sequence: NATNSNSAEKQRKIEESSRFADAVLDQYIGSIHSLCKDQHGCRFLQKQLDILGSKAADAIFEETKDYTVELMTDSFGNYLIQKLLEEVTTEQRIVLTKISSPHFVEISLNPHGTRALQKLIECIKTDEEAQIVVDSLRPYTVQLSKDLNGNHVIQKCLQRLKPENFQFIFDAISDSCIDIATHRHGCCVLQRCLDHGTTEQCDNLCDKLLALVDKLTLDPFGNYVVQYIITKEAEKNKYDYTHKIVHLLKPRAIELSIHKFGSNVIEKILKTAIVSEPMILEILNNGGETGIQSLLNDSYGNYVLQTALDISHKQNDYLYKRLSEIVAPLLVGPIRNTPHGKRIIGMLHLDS


molecular target: T1, PUF4 RNA-binding domain; test: Mg; RNA-MaP; 20 mM Na-HEPES pH 7.4, 30 mM KOAc, 0.75 mM MgCl2, 0.1% Tween-20, 5% glycerol, 0.1 mg/mL BSA, 2 mM DTT; 25 C; 0.0125-409.6 nM protein; settings: tags: N-His6-TEV cleaved; C-SNAP kept, Cy3B-labelled; label: tethered on chip by stalled RNA polymerase

Row | Binder | Kd [nM]
1 | ACAAACAAACACUUAUUAUAACAAAC (ssRNA) [Id_ii_S3_P5E.4_K5.3_C5.2_[C-2A]_[T-1A]_H5.3_A5.1_F5.1_T5.2] | > 2300
2 | UCUCUUUAUGUUAUUAUCUCUU (ssRNA) [Ib_S1_P5E.1_K5.1_C5.1_H5.1_[G2A]_[A4G]_A5.1_F5.1_T5.1] | 2070
3 | ACAAACUCACACUUAUUAAUACAAAC (ssRNA) [Id_ii_S3_P5E.4_K5.3_C5.2_[C-2T]_[T-1C]_H5.3_A5.1_F5.1_T5.2_[T11A]_[A12T]] | > 2300
4 | ACAAACCCACACUUAUUAAGACAAAC (ssRNA) [Id_ii_S3_P5E.4_K5.3_C5.2_[T-1C]_H5.3_A5.1_F5.1_T5.2_[T11A]_[A12G]] | > 2300
5 | UCUCUUUCUCUUAUUAUCUCUU (ssRNA) [Ib_S1_P5E.1_K5.1_C5.1_H5.1_[G2C]_[A4C]_A5.1_F5.1_T5.1] | > 2300
6 | ACAAACUUACACUUAUUACGACAAAC (ssRNA) [Id_ii_S3_P5E.4_K5.3_C5.2_[C-2T]_H5.3_A5.1_F5.1_T5.2_[T11C]_[A12G]] | > 2300
7 | ACAAACAAACACUUAUUAAGACAAAC (ssRNA) [Id_ii_S3_P5E.4_K5.3_C5.2_[C-2A]_[T-1A]_H5.3_A5.1_F5.1_T5.2_[T11A]_[A12G]] | > 2300
8 | ACAAACUCACACUUAUUACGACAAAC (ssRNA) [Id_ii_S3_P5E.4_K5.3_C5.2_[C-2T]_[T-1C]_H5.3_A5.1_F5.1_T5.2_[T11C]_[A12G]] | > 2300
9 | ACAAACAAACACUUAUUACCACAAAC (ssRNA) [Id_ii_S3_P5E.4_K5.3_C5.2_[C-2A]_[T-1A]_H5.3_A5.1_F5.1_T5.2_[T11C]_[A12C]] | > 2300
10 | UCUCUUUGCCUUAUUAUCUCUU (ssRNA) [Ib_S1_P5E.1_K5.1_C5.1_H5.1_[T3C]_[A4C]_A5.1_F5.1_T5.1] | > 2300
11 | ACAAACAUACACUUAUUACGACAAAC (ssRNA) [Id_ii_S3_P5E.4_K5.3_C5.2_[C-2A]_H5.3_A5.1_F5.1_T5.2_[T11C]_[A12G]] | > 2300
12 | UCUCUUUCUUUUAUUAUCUCUU (ssRNA) [Ib_S1_P5E.1_K5.1_C5.1_H5.1_[G2C]_[A4T]_A5.1_F5.1_T5.1] | > 2300
13 | ACAAACACACACUUAUUAACACAAAC (ssRNA) [Id_ii_S3_P5E.4_K5.3_C5.2_[C-2A]_[T-1C]_H5.3_A5.1_F5.1_T5.2_[T11A]_[A12C]] | > 2300
14 | ACAAACAAACACUUAUUACAACAAAC (ssRNA) [Id_ii_S3_P5E.4_K5.3_C5.2_[C-2A]_[T-1A]_H5.3_A5.1_F5.1_T5.2_[T11C]] | > 2300
15 | ACAAACCGACACUUAUUACGACAAAC (ssRNA) [Id_ii_S3_P5E.4_K5.3_C5.2_[T-1G]_H5.3_A5.1_F5.1_T5.2_[T11C]_[A12G]] | > 2300
16 | ACAAACCCACACUUAUUAUGACAAAC (ssRNA) [Id_ii_S3_P5E.4_K5.3_C5.2_[T-1C]_H5.3_A5.1_F5.1_T5.2_[A12G]] | > 2300

Row | Binder | Kd [nM]
17 | ACAAACCGACACUUAUUACUACAAAC (ssRNA) [Id_ii_S3_P5E.4_K5.3_C5.2_[T-1G]_H5.3_A5.1_F5.1_T5.2_[T11C]_[A12T]] | > 2300
18 | ACAAACCUACACUUAUUAGCACAAAC (ssRNA) [Id_ii_S3_P5E.4_K5.3_C5.2_H5.3_A5.1_F5.1_T5.2_[T11G]_[A12C]] | > 2300
19 | ACAAACUCACACUUAUUAGCACAAAC (ssRNA) [Id_ii_S3_P5E.4_K5.3_C5.2_[C-2T]_[T-1C]_H5.3_A5.1_F5.1_T5.2_[T11G]_[A12C]] | > 2300
20 | ACAAACAAACACUUAUUAGGACAAAC (ssRNA) [Id_ii_S3_P5E.4_K5.3_C5.2_[C-2A]_[T-1A]_H5.3_A5.1_F5.1_T5.2_[T11G]_[A12G]] | > 2300
21 | ACAAACUAACACUUAUUACAACAAAC (ssRNA) [Id_ii_S3_P5E.4_K5.3_C5.2_[C-2T]_[T-1A]_H5.3_A5.1_F5.1_T5.2_[T11C]] | > 2300
22 | ACAAACACACACUUAUUAUCACAAAC (ssRNA) [Id_ii_S3_P5E.4_K5.3_C5.2_[C-2A]_[T-1C]_H5.3_A5.1_F5.1_T5.2_[A12C]] | > 2300
23 | ACAAACCCACACUUAUUAUCACAAAC (ssRNA) [Id_ii_S3_P5E.4_K5.3_C5.2_[T-1C]_H5.3_A5.1_F5.1_T5.2_[A12C]] | > 2300
24 | UCUCUUUAUCUUAUUAUCUCUU (ssRNA) [Ib_S1_P5E.1_K5.1_C5.1_H5.1_[G2A]_[A4C]_A5.1_F5.1_T5.1] | > 2300
25 | ACAAACAUACACUUAUUAGGACAAAC (ssRNA) [Id_ii_S3_P5E.4_K5.3_C5.2_[C-2A]_H5.3_A5.1_F5.1_T5.2_[T11G]_[A12G]] | > 2300
26 | ACAAACUCACACUUAUUAUGACAAAC (ssRNA) [Id_ii_S3_P5E.4_K5.3_C5.2_[C-2T]_[T-1C]_H5.3_A5.1_F5.1_T5.2_[A12G]] | > 2300
27 | ACAAACAAACACUUAUUAAAACAAAC (ssRNA) [Id_ii_S3_P5E.4_K5.3_C5.2_[C-2A]_[T-1A]_H5.3_A5.1_F5.1_T5.2_[T11A]] | > 2300
28 | ACAAACAAACACUUAUUAUGACAAAC (ssRNA) [Id_ii_S3_P5E.4_K5.3_C5.2_[C-2A]_[T-1A]_H5.3_A5.1_F5.1_T5.2_[A12G]] | > 2300
29 | ACAAACUUACACUUAUUAUCACAAAC (ssRNA) [Id_ii_S3_P5E.4_K5.3_C5.2_[C-2T]_H5.3_A5.1_F5.1_T5.2_[A12C]] | > 2300
30 | ACAAACAGACACUUAUUACCACAAAC (ssRNA) [Id_ii_S3_P5E.4_K5.3_C5.2_[C-2A]_[T-1G]_H5.3_A5.1_F5.1_T5.2_[T11C]_[A12C]] | > 2300
31 | ACAAACAGACACUUAUUAUCACAAAC (ssRNA) [Id_ii_S3_P5E.4_K5.3_C5.2_[C-2A]_[T-1G]_H5.3_A5.1_F5.1_T5.2_[A12C]] | > 2300
